According to patent US20030194743A1 (DYAX, published 2003):
Primed or numbered codes have the meaning given here. No end group written: not given here. FITC′ = fluorescein label (fitc)

biological target: T1, B lymphocyte stimulator protein (BLyS) (UniProt Q9Y275 134-285, biotinylated (b-BLyS) in phage screening and phage ELISA; unlabeled in fluorescence anisotropy and column tests); test: fluorescence anisotropy
T1 construct: also called b-BLyS; biotinylated recombinant BLyS

Row | Binder | Kd [nM]
1 | Ac-WTDSLTGLWFPDGGPGPEGGGK (also: fluorescein-labeled, site not given here, synthetic) [DX221] | 3000

biological target: T1, B lymphocyte stimulator protein (BLyS); test: fluorescence anisotropy; remark: another data set of the same source

Row | Binder | Kd [nM]
2 | Ac-WYDPLTKLWLGGK(FITC′) (synthetic) [DX876] | 171

biological target: T1, B lymphocyte stimulator protein (BLyS); test: phage ELISA on biotinylated BLyS

Row | Binder | ELISA signal [OD630]
3 | AMKCYFPWECANG (also called TN7-01-D11) [453-01-D11] | 1
4 | VPFCDLLTKHCFEA (also called TN8-01-B07) [453-01-B07] | 1.4
5 | FHPCDMLTGIWCQPN (also called TN9-01-G06) [453-01-G06] | 1.2
6 | SRLCHMDELTHVCVHF (also called TN10-01-F05) [453-01-F05] | 1
7 | KEPCYFYWECAVS (also called TN7-01-A08) [453-01-A08] | 1.2
8 | KSKCFFPWECQQA (also called TN7-01-B04) [453-01-B04] | 0.8
9 | HVDCLLHPKACYKY (also called TN8-01-C08) [453-01-C08] | 1.2

More lines, now with the values ahead:

Row | ELISA signal [OD630] | Binder
10 | 1 | GGNCYTDSLTKLHFCMGD (also called TN12-01-H05) [453-01-H05]
11 | 0.8 | LNACDIVHPNYCSGM (also called TN9-01-011) [453-01-G11]
12 | 0.8 | YFDQLTHLSIKK (also called PhD-02-D05) [453-02-D05]
13 | 1 | WTDSLTGLWFPD (also called PhD-02-C04) [453-02-C04]
14 | 0.8 | GYDVLTKLYFVP (also called PhD-02-C12) [453-02-C12]
15 | 0.6 | VHYDSLTKMWTR (also called PhD-02-B05) [453-02-B05]
16 | 0.6 | GIYDKLTRAWLP (also called PhD-02-B02) [453-02-B02]

biological target: T1, B lymphocyte stimulator protein (BLyS); test: not stated at this place (fluorescence anisotropy elsewhere); reference in indirect phage ELISA

Row | Binder | Kd [nM]
17 | VPFCDLLTKHCFEA (also called TN8-01-B07) [453-01-B07] | 700
